Patent US20220025032A1 (Novartis, published 2022)
Read-outs that look alike come from different tables or passages of the source.

T1: Human BTC-avitag-biotin (human, UniProt P35070 32-111, biotin on the avitag)
T1 construct: also called biotin-BTC; soluble human BTC-avitag-biotin
T1 sequence: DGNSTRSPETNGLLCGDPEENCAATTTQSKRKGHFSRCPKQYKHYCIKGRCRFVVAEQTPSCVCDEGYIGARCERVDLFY

T2: Human BTC (human, UniProt P35070 32-111)
T2 construct: Soluble human BTC of the Biacore, ELISA, MSD and cell assays; also called human betacellulin; soluble human BTC
T2 sequence: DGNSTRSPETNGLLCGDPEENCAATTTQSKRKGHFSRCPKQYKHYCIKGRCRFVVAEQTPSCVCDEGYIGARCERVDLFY

T3: membrane-bound human BTC on 293F-hBTC cells (human, UniProt P35070 32-111)
T3 construct: the transfected construct is not described; also called membrane-anchored BTC
T3 sequence: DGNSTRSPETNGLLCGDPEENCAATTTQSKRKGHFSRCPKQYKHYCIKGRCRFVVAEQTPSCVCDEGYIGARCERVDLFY

T4: Mouse BTC (mouse, UniProt Q05928 32-111, limits assumed)
T4 sequence (looked up): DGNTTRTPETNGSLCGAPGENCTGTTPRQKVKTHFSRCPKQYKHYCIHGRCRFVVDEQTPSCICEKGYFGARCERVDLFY

T5: Rat BTC (rat, UniProt Q9JJM4 32-111)
T5 sequence: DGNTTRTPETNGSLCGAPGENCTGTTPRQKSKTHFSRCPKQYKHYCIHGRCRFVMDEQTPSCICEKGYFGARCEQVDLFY

T6: Rabbit BTC (rabbit, UniProt G1SJ89 32-111)
T6 sequence: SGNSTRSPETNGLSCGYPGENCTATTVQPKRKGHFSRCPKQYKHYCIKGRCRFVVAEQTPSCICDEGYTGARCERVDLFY

T7: Cyno BTC (cynomolgus, UniProt A0A2K5X5E5 32-111)
T7 construct: also called cynomolgus BTC
T7 sequence: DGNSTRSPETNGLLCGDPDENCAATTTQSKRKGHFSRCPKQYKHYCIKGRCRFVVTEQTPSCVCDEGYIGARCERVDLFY


Tests used:
[1] = biological target: T1, Human BTC-avitag-biotin; test: flow cytometry: inhibition of biotin-BTC binding to HKB11 cells over-expressing ErbB1; y axis Fluorescent Intensity
Procedure: (§1) In order to assess potency of the Fabs and bispecific in neutralizing binding of BTC to its receptor Erb 1 or ErbB4, the following assay was performed. HKB11 over-expressing either ErbB1 or ErbB4 cells were plated 1×10⁵ cells/well. Cells were washed once with FACS buffer by spun down at 1200 rpm for 5 minutes and supernatant removed. Next, the Fab sample dilutions and BTC were prepared in FACS buffer. Human BTC-avitag-biotin was diluted to a fixed concentration of 15 nM. The test Fab samples were prepared at a starting concentration of 40 nM and titrated for 9 points at a serial dilution of 1:2. Both biotin-BTC and the test Fab samples are incubated for 30 minutes at room temperature. The pre-incubated samples were then added to the cell plate at 100 μl per well in duplicate and incubated for 1 hour on ice. The plate was then washed once in FACS buffer and spun down at 1200 rpm for 5 minutes and supernatant removed. After suspending the cell pellet with 100 μl/well of diluted secondary antibody streptavidin-Alexa Fluor488 (1:2000) in FACS buffer, the cells were then incubated for 60 min on ice. The cells were washed once with FACS buffer and re-suspended in 120 μl of FACS buffer for flow cytometric analysis.
(§2) Measurements were performed on Attune Flow Cytometry machine. Data were analysed using the Flow Jo software. The live cell populations analysed were gated in forward and side scattering (FSC-A/SSC-A dot plot). The interval gate was established on the control histogram, which was obtained with sample incubated in streptavidin-Alexa Fluor488 only, and subsequently, determined percent of positive binding events of cells carrying membrane-bound receptor ErbB1 or ErbB4 and biotin-BTC. The median of fluorescence intensity (MFI) value was also derived for the live cell population. MFI values were then used to calculate for percent inhibition of test sample and subsequently plotted in GraphPad Prism 7.03 using nonlinear regression (curve fit) model to generate IC50 value.

[2] = biological target: T2, Human BTC; test: SPR Biacore T200, anti-Fab capture, antigen as analyte
[3] = biological target: T3, membrane-bound human BTC on 293F-hBTC …; test: flow cytometry on 293F cells with membrane-bound human BTC; y axis % Pos Binding
Procedure: (§3) After washing the cells, the cells were dissociated using Versene at 37° C. The cells were washed with FACS buffer and plated at 100 μl in a 96 well plate using cells at 1×10⁶ cells/ml. Then 100 μl of a serial dilution of antibodies starting at 50 nM was used. The cells were incubated, washed and then treated with the secondary anti-human Fab-FITC antibody. The antibodies only bound to the cells expressing BTC. After which the cells were washed and analyzed on the Attune Flow Cytometry. All data analysis was carried out using Flow Jo software.
In FIG. 6A, Flow cytometry was used to assess the binding of NVS11 to membrane-bound BTC using an anti-human Fab antibody for detection.

[4] = biological target: T2, Human BTC; test: cell-based inhibition of BTC binding to ErbB1
[5] = biological target: T2, Human BTC; test: MSD-based inhibition of BTC binding to ErbB4
[6] = biological target: T2, Human BTC; test: cell-based or functional assay
[7] = biological target: T3, membrane-bound human BTC on 293F-hBTC …; test: cell-based or functional assay
[8] = biological target: T2, Human BTC; test: SPR (Biacore/ProteOn)
[9] = biological target: T4, Mouse BTC; test: SPR (Biacore/ProteOn)
[10] = biological target: T5, Rat BTC; test: SPR (Biacore/ProteOn)
[11] = biological target: T6, Rabbit BTC; test: SPR (Biacore/ProteOn)
[12] = biological target: T7, Cyno BTC; test: SPR (Biacore/ProteOn)
[13] = biological target: T8, Human VEGF165 (human, UniProt P15692 27-191); test: SPR Biacore T200, anti-Fab capture
T8 construct: mature; biotinylated in the VEGFR2 ELISAs; also called human VEGF-A; VEGF-A
T8 sequence (P15692 other isoform, or with tags, fused parts or gaps): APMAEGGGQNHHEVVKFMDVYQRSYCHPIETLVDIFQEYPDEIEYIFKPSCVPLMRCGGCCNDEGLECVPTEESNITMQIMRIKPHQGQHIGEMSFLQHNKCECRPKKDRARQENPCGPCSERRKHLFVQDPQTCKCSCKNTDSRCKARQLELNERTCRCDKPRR

[14] = biological target: T1, Human BTC-avitag-biotin; test: flow cytometry: inhibition of biotin-BTC binding to HKB11 cells over-expressing ErbB4; y axis Fluorescent Intensity
Procedure: as §1, §2

[15] = biological target: T2, Human BTC; test: cell-based inhibition of BTC binding to ErbB4
[16] = biological target: T2, Human BTC; test: MSD-based inhibition of BTC binding to ErbB1
[17] = biological target: T3, membrane-bound human BTC on 293F-hBTC …; test: flow cytometry, 293F cells with BTC against 293F
[18] = biological target: T3, membrane-bound human BTC on 293F-hBTC …; test: flow cytometry on 293F cells with membrane-bound human BTC; y axis % Pos Binding; remark: listed apart in the source
Procedure: as §3

Binder | IC50 [1] | Kd [2] | EC50 [3] | Cell-based binding inhibition BTC/ErbB1 [4] | MSD-based binding inhibition BTC/ErbB4 [5] | ADR/Res pErbB3 (IC50 in nM) [6] | Neutralization of juxtacrine signaling [7] | Kd [8] | Kd [9] | Kd [10] | Kd [11] | Kd [12] | binding result [13] | IC50 [14] | Cell-based binding inhibition BTC/ErbB4 [15] | MSD-based binding inhibition BTC/ErbB1 [16] | Binding to membrane-anchored BTC (median, X above 293F) [17] | A431 pERK (IC50 in nM) [6] | inhibition [6] | also measured
NVS3 (Fab, V domains shown, also called Fab NVS3; anti-BTC Fab) VH: QVQLLESGGGLVQPGGSLRLSCAASGFTFSSYAMSWVRQAPGKGLEWVSGLGHVGYTTYTDSVKGRFTISRDNSKNTLYLQMNSLRAEDTAVYYCARDYLDFGYYFDVWGQGTLVTVSS VL: SYELTQPLSVSVALGQTARITCSGDKIGKKYVHWYQQKPGQAPVLVIYDDSDRPSGIPERFSGSNSGNTATLTISRAQAGDEADYYCQAWDMQSVVFGGGTKLTVLG | 1.81 nM | 0.0044 nM | 0.322 nM | > 90% | > 90% | 7.89 nM | 99% | 0.0014 nM | < 0.001 nM | 0.02 nM | 0.017 nM | 0.0054 nM | no binding | 2.04 nM | > 90% | > 90% | > 10 X above 293F |  |  | A431 pERK (column head: IC50 in nM; cell printed as percent) [6]: > 90%
NVS2 (Fab, V domains shown, also called Fab NVS2; anti-BTC Fab) VH: not shown VL: SYELTQPPSVSVSPGQTASITCSGDKLGDKYAYWYQQKPGQSPVLVIYQDSKRPSGIPERFSGSNSGNTATLTISGTQAEDEADYYCQAFDYLYSLGVFGGGTKLTVLG | 1.73 nM | 0.0047 nM | 0.256 nM | > 90% | > 90% | 6.3 nM | 90% | 0.014 nM | 0.009 nM | 0.021 nM | 0.005 nM | 0.016 nM | no binding | 1.83 nM | > 90% | > 90% | > 10 X above 293F | 0.37 nM | 99.7% | 
NVS4 (Fab, V domains shown, also called NVS4 Fab; Fab NVS4) VH: QVQLLESGGGLVQPGGSLRLSCAASGFTFSRYWISWVRQAPGKGLEWVSYIDSTGTFINYADSVKGRFTISRDNSKNTLYLQMNSLRAEDTAVYYCARGGSLFDYWGQGTLVTVSS VL: DIQMTQSPSSLSASVGDRVTITCRASQGIISYLGWYQQKPGKAPKLLIYAASSLQSGVPSRFSGSGSGTDFTLTISSLQPEDFATYYCQQYDALNTFGQGTKVEIKR | 1.61 nM | 0.0043 nM |  | > 90% | > 90% | 6.1 nM | 87% | 0.005 nM | 0.005 nM | 0.008 nM | 0.001 nM | 0.012 nM |  | 1.8 nM | > 90% | > 90% | > 10 X above 293F | 0.49 nM | 99.4% | EC50 [18]: 0.238 nM
